± gives the uncertainty stated by the source.
B1: Tyrosine-protein kinase Lck, residues 63 to 120; numbered along this chain, P06239 (parent)
chain: DNLVIALHSYEPSHDGDLGFEKGEQLRILEQSGEWWKAQSLTTGQEGFIPFNFVAKAN

Variants of: B1
Experiment: abundance fitness (aPCA) (normalised: wild type 0, dead -1); higher = more abundant; growth selection in yeast, the domain comes from the species named
Settings: Homo sapiens

Row | Variant | abundance fitness
1 | E46L | -0.157 ± 0.077
2 | E46Q | -0.038 ± 0.11
3 | E46V | 0.042 ± 0.083
4 | E46S | 0.021 ± 0.091
5 | E46Y | -0.316 ± 0.12
6 | E46C | -0.023 ± 0.11
7 | E46G | -0.632 ± 0.076
8 | E46H | -0.448 ± 0.13
9 | E46W | -0.517 ± 0.1
10 | E46R | -0.207 ± 0.068
11 | E46I | 0.131 ± 0.12
12 | E46F | -0.294 ± 0.13
13 | E46K | -0.05 ± 0.16
14 | E46P | -0.745 ± 0.15
15 | E46A | -0.024 ± 0.089
16 | E46N | -0.217 ± 0.16
17 | E46M | -0.032 ± 0.11
18 | S40H | -0.115 ± 0.15
19 | S40L | -0.538 ± 0.083
20 | S40K | -0.076 ± 0.13
21 | S40D | -0.626 ± 0.14
22 | S40G | -0.795 ± 0.087
23 | S40A | -0.382 ± 0.088
24 | S40Y | -0.862 ± 0.21

Row | Variant | abundance fitness
25 | S40N | -0.135 ± 0.15
26 | S40I | -0.687 ± 0.21
27 | S40M | -0.918 ± 0.17
28 | S40F | -0.908 ± 0.12
29 | S40E | -0.789 ± 0.13
30 | S40W | -0.989 ± 0.15
31 | S40P | -0.793 ± 0.15
32 | S40T | -0.484 ± 0.14
33 | S40Q | -0.622 ± 0.18
34 | S40V | -0.641 ± 0.088
35 | S40R | -0.107 ± 0.067
36 | G47R | -0.687 ± 0.085
37 | G47V | -0.807 ± 0.09
38 | G47Q | -0.986 ± 0.18
39 | G47M | -0.884 ± 0.17
40 | G47T | -0.831 ± 0.15
41 | G47C | -1.07 ± 0.18
42 | G47L | -0.789 ± 0.1
43 | G47W | -0.831 ± 0.15
44 | G47I | -1.02 ± 0.3
45 | G47H | -0.81 ± 0.21
46 | G47E | -0.831 ± 0.12
47 | G47F | -0.982 ± 0.45
48 | G47S | -0.931 ± 0.12

Row | Variant | abundance fitness
49 | G47P | -0.687 ± 0.15
50 | G47D | -0.912 ± 0.15
51 | F48A | -0.235 ± 0.081
52 | T43A | -0.617 ± 0.11
53 | T43I | -0.941 ± 0.26
54 | T43C | -0.949 ± 0.25
55 | T43E | -0.643 ± 0.13
56 | T43Q | -0.549 ± 0.14
57 | T43P | -0.909 ± 0.16
58 | T43S | -0.101 ± 0.088
59 | T43L | -0.831 ± 0.11
60 | T43V | -0.854 ± 0.097
61 | T43M | -0.766 ± 0.17
62 | T43R | -0.624 ± 0.085
63 | T43W | -1.1 ± 0.18
64 | T43G | -0.658 ± 0.063
65 | T43N | -0.277 ± 0.21
66 | T43H | -0.622 ± 0.24
67 | T43D | -0.446 ± 0.12
68 | T43F | -0.957 ± 0.26
69 | T43Y | -0.85 ± 0.2
70 | T43K | -0.698 ± 0.16
71 | A38W | -0.598 ± 0.19
72 | A38M | -0.656 ± 0.2

Row | Variant | abundance fitness
73 | A38V | -0.104 ± 0.082
74 | A38S | -0.795 ± 0.16
75 | A38Q | -0.891 ± 0.34
76 | A38R | -1.08 ± 0.15
77 | A38T | -0.963 ± 0.23
78 | A38Y | -0.714 ± 0.22
79 | A38L | -0.337 ± 0.1
80 | A38N | -0.445 ± 0.26
81 | Q39L | -0.312 ± 0.083
82 | Q39D | -1.03 ± 0.35
83 | Q39T | -0.278 ± 0.11
84 | Q39M | -0.179 ± 0.11
85 | Q39W | -0.784 ± 0.12
86 | Q39F | -0.503 ± 0.2
87 | Q39P | -0.843 ± 0.23
88 | Q39N | -0.868 ± 0.3
89 | Q39R | -0.017 ± 0.073
90 | Q39G | -0.722 ± 0.095
91 | Q39C | -0.386 ± 0.13
92 | Q39S | -0.297 ± 0.092
93 | Q39I | -0.327 ± 0.17
94 | Q39A | -0.361 ± 0.12
95 | Q39Y | -0.468 ± 0.14
96 | Q39K | -0.042 ± 0.12

Row | Variant | abundance fitness
97 | G44L | -0.271 ± 0.082
98 | G44Y | -0.467 ± 0.2
99 | G44S | -0.268 ± 0.088
100 | G44T | -0.557 ± 0.17
101 | G44R | -0.22 ± 0.078
102 | G44W | -0.541 ± 0.11
103 | G44M | -0.272 ± 0.18
104 | G44P | -1.07 ± 0.3
105 | G44C | -0.446 ± 0.1
106 | G44E | -0.222 ± 0.11
107 | G44A | -0.264 ± 0.09
108 | G44I | -0.591 ± 0.24
109 | G44N | -0.193 ± 0.15
110 | G44Q | -0.24 ± 0.12
111 | G44F | -0.394 ± 0.19
112 | G44H | -0.321 ± 0.13
113 | G44V | -0.819 ± 0.1
114 | Q45K | -0.101 ± 0.15
115 | Q45R | -0.015 ± 0.065
116 | Q45E | 0.001 ± 0.1
117 | Q45V | -0.187 ± 0.1
118 | Q45I | -0.662 ± 0.42
119 | Q45C | -0.117 ± 0.11
120 | Q45A | -0.087 ± 0.09

Row | Variant | abundance fitness
121 | Q45P | -0.57 ± 0.16
122 | Q45S | -0.282 ± 0.098
123 | Q45W | -0.599 ± 0.091
124 | Q45D | -0.217 ± 0.15
125 | Q45N | -0.288 ± 0.23
126 | Q45T | -0.146 ± 0.11
127 | Q45G | -0.308 ± 0.068
128 | Q45L | -0.112 ± 0.087
129 | Q45H | -0.23 ± 0.21
130 | Q45F | -0.303 ± 0.18
131 | Q45M | -0.092 ± 0.11
132 | L41C | -0.068 ± 0.1
133 | L41A | -0.382 ± 0.094
134 | L41I | -0.058 ± 0.14
135 | L41N | -0.624 ± 0.24
136 | L41Y | -0.65 ± 0.16
137 | L41W | -0.933 ± 0.12
138 | L41P | -0.339 ± 0.14
139 | L41T | -0.149 ± 0.11
140 | L41Q | -0.167 ± 0.2
141 | L41D | -0.666 ± 0.2
142 | L41F | -0.54 ± 0.12
143 | L41R | -0.513 ± 0.073
144 | L41K | -0.348 ± 0.16

Row | Variant | abundance fitness
145 | L41E | -0.153 ± 0.099
146 | L41G | -0.721 ± 0.08
147 | L41M | -0.227 ± 0.13
148 | L41S | -0.478 ± 0.077
149 | L41H | -0.765 ± 0.18
150 | T42E | -0.015 ± 0.13
151 | T42L | -0.12 ± 0.097
152 | T42H | -0.08 ± 0.15
153 | T42S | -0.031 ± 0.078
154 | T42V | -0.001 ± 0.11
155 | T42I | -0.049 ± 0.083
156 | T42W | -0.24 ± 0.078
157 | T42K | 0.042 ± 0.12
158 | T42P | -0.715 ± 0.14
159 | T42Y | -0.129 ± 0.15
160 | T42R | -0.059 ± 0.064
161 | T42Q | -0.057 ± 0.12
162 | T42G | -0.248 ± 0.079
163 | T42M | -0.101 ± 0.15
164 | T42F | -0.305 ± 0.14
165 | T42A | -0.035 ± 0.082
166 | T42D | -0.181 ± 0.13
167 | T42N | 0.034 ± 0.14

— the Human Domainome abundance scans (Beltran et al. 2025)
